We go through 9 sequences from the supplement of paper PMC11246515.

The series in a line: total protein half-life in vivo (active degradation + dilution); higher = more stable protein.
Setting [1] is: E. coli NCM3722 delta-clpP delta-lon delta-hslV, growth: N-lim chemostat, doubling time 6 h.
[2] abbreviates: E. coli NCM3722 delta-clpP, growth: N-lim chemostat, doubling time 6 h.
Setting [3] is: E. coli NCM3722 delta-hslV, growth: N-lim chemostat, doubling time 6 h.
The mark [4] stands for this setting: E. coli NCM3722 delta-lon, growth: N-lim chemostat, doubling time 6 h.
Setting [5] is: E. coli NCM3722 delta-smpB, growth: N-lim chemostat, doubling time 6 h.
Where [6] appears, read: wild type E. coli NCM3722, growth: C-lim chemostat, doubling time 3 h.
[7] abbreviates: wild type E. coli NCM3722, growth: C-lim chemostat, doubling time 6 h.
Where [8] appears, read: wild type E. coli NCM3722, growth: C-lim chemostat, doubling time 12 h.
[9] abbreviates: wild type E. coli NCM3722, growth: N-lim chemostat, doubling time 6 h.
Setting [10] is: wild type E. coli NCM3722, growth: N-lim chemostat, doubling time 12 h.
Where [11] appears, read: wild type E. coli NCM3722, growth: P-lim chemostat, doubling time 6 h.
The mark [12] stands for this setting: wild type E. coli NCM3722, growth: P-lim chemostat, doubling time 12 h.

± gives the standard deviation of the averaged measurements.

For the sequence “MKKRIPTLLATMIATALYSQQGLAADLASQCMLGVPSYDRPLVQGDTNDLPVTINADHAKGDYPDDAVFTGSVDIMQGNSRLQADEVQLHQKEAPGQPEPVRTVDALGNVHYDDNQVILKGPKGWANLNTKDTNVWEGDYQMVGRQGRGKADLMKQRGENRYTILDNGSFTSCLPGSDTWSVVGSEIIHDREEQVAEIWNARFKVGPVPIFYSPYLQLPVGDKRRSGFLIPNAKYTTTNYFEFYLPYYWNIAPNMDATITPHYMHRRGNIMWENEFRYLSQAGAGLMELDYLPSDKVYEDEHPNDDSSRRWLFYWNHSGVMDQVWRFNVDYTKVSDPSYFNDFDNKYGSSTDGYATQKFSVGYAVQNFNATVSTKQFQVFSEQNTSSYSAEPQLDVNYYQNDVGPFDTRIYGQAVHFVNTRDDMPEATRVHLEPTINLPLSNNWGSINTEAKLLATHYQQTNLDWYNSRNTTKLDESVNRVMPQFKVDGKMVFERDMEMLAPGYTQTLEPRAQYLYVPYRDQSDIYNYDSSLLQSDYSGLFRDRTYGGLDRIASANQVTTGVTSRIYDDAAVERFNISVGQIYYFTESRTGDDNITWENDDKTGSLVWAGDTYWRISERWGLRGGIQYDTRLDNVATSNSSIEYRRDEDRLVQLNYRYASPEYIQATLPKYYSTAEQYKNGISQVGAVASWPIADRWSIVGAYYYDTNANKQADSMLGVQYSSCCYAIRVGYERKLNGWDNDKQHAVYDNAIGFNIELRGLSSNYGLGTQEMLRSNILPYQNTL”, the “total protein half-life in vivo” value under setting [1] came out at 6.76 ± 0.85 h; the “total protein half-life in vivo” value under setting [2] worked out at 6.59 ± 0.56 h; the “total protein half-life in vivo” value under setting [3] was 6.39 ± 0.33 h; the “total protein half-life in vivo” value under setting [4] was found to be 6.28 ± 0.42 h; the “total protein half-life in vivo” value under setting [5] amounted to 6 ± 0.24 h; the “total protein half-life in vivo” value under setting [6] was found to be 3.25 ± 0.27 h. In addition, the “total protein half-life in vivo” value is, setting by setting: under setting [7], 6.269 ± 0.016 h; under setting [8], 13.3 ± 0.19 h; under setting [9], 6.7 ± 0.21 h; under setting [10], 13 ± 0.44 h; under setting [11], 6.34 ± 0.59 h; under setting [12], 13.5 ± 0.86 h.

With “MSEFDAQRVAERIDIVLDILVAGDYHSAIHNLEILKAELLRQVAESTPDIPKAPWEI [A5A614]”, the “total protein half-life in vivo” value under setting [1] is more than 8 h, the “total protein half-life in vivo” value under setting [5] is 2.71 h, the “total protein half-life in vivo” value under setting [7] worked out at 3.77 ± 0.23 h and the “total protein half-life in vivo” value under setting [11] was 3.58 h.

“MMNFNNVFRWHLPFLFLVLLTFRAAAADTLLILGDSLSAGYRMSASAAWPALLNDKWQSKTSVVNASISGDTSQQGLARLPALLKQHQPRWVLVELGGNDGLRGFQPQQTEQTLRQILQDVKAANAEPLLMQIRLPANYGRRYNEAFSAIYPKLAKEFDVPLLPFFMEEVYLKPQWMQDDGIHPNRDAQPFIADWMAKQLQPLVNHDS [P0ADA1]”: the “total protein half-life in vivo” value stood at 4.1 ± 0.072 h under setting [1]; 4.87 ± 0.67 h under setting [2]; 6.432 ± 0.063 h under setting [3]; 6.67 ± 0.4 h under setting [4]; 4.99 ± 0.46 h under setting [5]; 3.25 ± 0.11 h under setting [6]. The “total protein half-life in vivo” value under setting [7] stood at 6.228 ± 0.058 h; the “total protein half-life in vivo” value under setting [8] was found to be 11.1 ± 5.7 h; the “total protein half-life in vivo” value under setting [9] turned out to be 5.25 ± 0.28 h; the “total protein half-life in vivo” value under setting [10] amounted to 11 ± 3.7 h; the “total protein half-life in vivo” value under setting [11] turned out to be 5.23 ± 0.37 h; the “total protein half-life in vivo” value under setting [12] was 11.4 ± 0.78 h.

Consider “MKKKTTLSEEDQALFRQLMAGTRKIKQDTIVHRPQRKKISEVPVKRLIQEQADASHYFSDEFQPLLNTEGPVKYVRPDVSHFEAKKLRRGDYSPELFLDLHGLTQLQAKQELGALIAACRREHVFCACVMHGHGKHILKQQTPLWLAQHPHVMAFHQAPKEYGGDAALLVLIEVEEWLPPELP [P0A8B2]”, for which the “total protein half-life in vivo” value is 3.99 ± 0.33 h under setting [1]; 2.898 ± 0.019 h under setting [2]; 3.03 ± 0.56 h under setting [3]; 3.68 ± 0.36 h under setting [5]; 2.46 ± 0.48 h under setting [6]; 3.84 ± 0.16 h under setting [7]. Besides, the “total protein half-life in vivo” value runs as follows: under setting [8], 5.34 h; under setting [9], 2.99 ± 0.086 h; under setting [10], 3.87 ± 0.36 h; under setting [11], 3.06 ± 0.1 h; under setting [12], 6 ± 0.6 h.

As to “METKNLTIGERIRYRRKNLKHTQRSLAKALKISHVSVSQWERGDSEPTGKNLFALSKVLQCSPTWILFGDEDKQPTPPVEKPVALSPKELELLELFNALPESEQDTQLAEMRARVKNFNKLFEELLKARQRTNKR”, the “total protein half-life in vivo” value under setting [1] turned out to be 6.79 ± 1 h; the “total protein half-life in vivo” value under setting [2] was 5.32 ± 0.38 h; the “total protein half-life in vivo” value under setting [3] turned out to be 5.9 ± 0.15 h; the “total protein half-life in vivo” value under setting [4] was 6.27 ± 0.067 h; the “total protein half-life in vivo” value under setting [5] was 5.86 ± 0.56 h; the “total protein half-life in vivo” value under setting [6] turned out to be 3.21 ± 0.043 h. The “total protein half-life in vivo” value worked out at 5.25 ± 0.77 h under setting [7]; 6.96 ± 1.7 h under setting [8]; 4.971 ± 0.028 h under setting [9]; 10.2 ± 2.7 h under setting [10]; 5.33 ± 1 h under setting [11]; 10.7 ± 0.66 h under setting [12].

Take “MNKLIELRRAKRLALSLLLIAAATFVVTLFLPPNFWVSGVKAIAEAAMVGALADWFAVVALFRRVPIPIISRHTAIIPRNKDRIGENLGQFVQEKFLDTQSLVALIRRHEPALLIGNWFSQPENARRVGQHLLQIMSGFLELTDDARIQRLLKRAVHRAIDKVDLSGTSALMLESMTKNDRHQVLLDTLIAQLIALLQRDKSRKFIAQQIVRWLESEHPLKAKILPTEWLGEHSAELVSDAVNSLLDDISRDRAHQIRHAFDRATFALIDKLKNDPEMAARADAVKSYLKEDEAFNRYLSELWGDLREWLKVDINSEDSRVKERIARAGQWFGETLIADDALRASLNGHLEQAAHRVAPEFSAFLTRHISDTVKSWDARDMSRQIELNIGKDLQFIRVNGTLVGGCIGLILYLLSQLPALFPLGNF”: the “total protein half-life in vivo” value runs as follows: under setting [1], 5.72 ± 0.23 h; under setting [3], 6.12 ± 0.14 h; under setting [4], 5.6 ± 0.16 h; under setting [5], 5.794 ± 0.016 h; under setting [6], 3.17 ± 0.071 h; under setting [7], 5.3 ± 0.096 h. In addition, the “total protein half-life in vivo” value under setting [8] is 12.3 ± 2.3 h; the “total protein half-life in vivo” value under setting [9] came to 6.365 ± 0.03 h; the “total protein half-life in vivo” value under setting [10] was found to be 12.37 ± 0.058 h; the “total protein half-life in vivo” value under setting [11] stood at 5.7 ± 0.39 h; the “total protein half-life in vivo” value under setting [12] worked out at 12.4 ± 1.6 h.

With “MKRKTLPLLALVATTLFLIACDDRSDDLKAISKFKDLTPPRFSDVVSHQDDVSEEWSQVDYLSGPTLQVLRTRQSPDGCEDGSYYYLVDMQEKTVQPLMNALCIADNIKLEYQEVTDPYTKEKYFEYAHDGKLMGQLLIPSNPDNQE”, the “total protein half-life in vivo” value under setting [7] came to 1.71 h.

“MRKKIEMSLIKSPANGVVIKRKISDGLKEIVSLKEKILLETTAKIQSIEEKREEKFIQGYYDGYTKGIIDEMDNFIPLISLLCSELEKKRINMINDLKSILLKPSEEVDVFIKIFESWVTKLPSISGPVNLHIPTSFKDKSLEVESYFVDKSIWNVHITFHDDKRFVFFTDQFIAEFSPQEFVDNCEQYLINNHCFSPDKVNEICEQARHYLVEKMFETHSLDMNNSVLASPEDL”: the “total protein half-life in vivo” value under setting [10] was more than 16 h.

Take “MAVNLLKKNSLALVASLLLAGHVQATELLNSSYDVSRELFAALNPPFEQQWAKDNGGDKLTIKQSHAGSSKQALAILQGLKADVVTYNQVTDVQILHDKGKLIPADWQSRLPNNSSPFYSTMGFLVRKGNPKNIHDWNDLVRSDVKLIFPNPKTSGNARYTYLAAWGAADKADGGDKGKTEQFMTQFLKNVEVFDTGGRGATTTFAERGLGDVLISFESEVNNIRKQYEAQGFEVVIPKTNILAEFPVAWVDKNVQANGTEKAAKAYLNWLYSPQAQTIITDYYYRVNNPEVMDKLKDKFPQTELFRVEDKFGSWPEVMKTHFTSGGELDKLLAAGRN”: the “total protein half-life in vivo” value runs as follows: under setting [1], 4.09 ± 0.2 h; under setting [2], 5.26 ± 0.17 h; under setting [3], 6.24 ± 0.08 h; under setting [4], 6.861 ± 0.011 h; under setting [5], 5.74 ± 0.07 h; under setting [6], 3.3 ± 0.27 h. The “total protein half-life in vivo” value is, setting by setting: under setting [7], 6.1057 ± 0.00027 h; under setting [8], 10 ± 0.37 h; under setting [9], 6.338 ± 0.056 h; under setting [10], 12.8 ± 0.46 h; under setting [11], 6.18 ± 0.1 h; under setting [12], 12.4 ± 0.31 h.
